Source: PMC7613103 (Science signaling, 2020)
Substitutions are numbered along the chain they refer to. Names and notes keep the numbering of the source.

Assays:
[1] = biological target: UBE2S^UBC (UBC domain of UBE2S, residues 1-156) (human) (UniProt Q16763); assay: cross-linking + SEC-MALS
Cys118 = Cys118 (UniProt position 118, LLTIKCLLIHP); assay: chemical modification; conditions: 10 °C; 100 mM NaCl; Free reduced enzyme, 14.4 μM, no ubiquitin or other ligand
Cys95 = Cys95 (UniProt position 95, ANGEICVNVLK); assay: chemical modification; conditions: 10 °C; 100 mM NaCl; Free reduced enzyme, 14.4 μM, no ubiquitin or other ligand
[2] = biological target: T1, UBE2S (full-length, untagged, purified) (human), Q16763; assay: cross-linking + SEC-MALS; conditions: remark: other sources report otherwise
T1 chain: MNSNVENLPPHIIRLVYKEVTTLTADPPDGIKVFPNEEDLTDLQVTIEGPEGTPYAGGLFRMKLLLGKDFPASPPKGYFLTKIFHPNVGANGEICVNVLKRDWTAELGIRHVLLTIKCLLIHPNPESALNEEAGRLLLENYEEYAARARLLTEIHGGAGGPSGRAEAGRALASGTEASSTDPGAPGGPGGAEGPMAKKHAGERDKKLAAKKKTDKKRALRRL

cross-linking = biological target: the molecule itself; assay: cross-linking

UBE2S^UBC (UBC domain of UBE2S, residues 1-156) (from UniProt Q16763 1-156) (domain or fragment)
stoichiometry N [1]: 2

Ubiquitin-conjugating enzyme E2 S (UBE2S) C95S variant (Homo sapiens; C95S)
pKa (Cys118): 9.4 ± 0.1

Ubiquitin-conjugating enzyme E2 S (UBE2S) C118S variant (Homo sapiens; C118S)
pKa (Cys95): 6.4 ± 0.2

B1: UBE2S (full-length, untagged, purified), Q16763 1-222 (enzyme)
chain: T1 chain
stoichiometry N [2]: 2

B2: UBE2S C95S (full-length) (enzyme)
chain: T1 chain with C95S
binding result (cross-linking): binds
